Source: patent publication US20220064329A1 (Novo Nordisk, published 2022)
Residue numbers refer to the chain shown, from its start.

Legend:
Assay in all cases: SPR, Biacore T200, 25 C; FVII(a) variant captured on anti-Gla Ab 4F6, mAb0842(OA) injected
FVII(a) variant M391A = biological target: T1, FVII(a) variant M391A (human, UniProt P08709 61-466)
T1 construct: hFVII alanine variant in cell culture supernatant
T1 sequence: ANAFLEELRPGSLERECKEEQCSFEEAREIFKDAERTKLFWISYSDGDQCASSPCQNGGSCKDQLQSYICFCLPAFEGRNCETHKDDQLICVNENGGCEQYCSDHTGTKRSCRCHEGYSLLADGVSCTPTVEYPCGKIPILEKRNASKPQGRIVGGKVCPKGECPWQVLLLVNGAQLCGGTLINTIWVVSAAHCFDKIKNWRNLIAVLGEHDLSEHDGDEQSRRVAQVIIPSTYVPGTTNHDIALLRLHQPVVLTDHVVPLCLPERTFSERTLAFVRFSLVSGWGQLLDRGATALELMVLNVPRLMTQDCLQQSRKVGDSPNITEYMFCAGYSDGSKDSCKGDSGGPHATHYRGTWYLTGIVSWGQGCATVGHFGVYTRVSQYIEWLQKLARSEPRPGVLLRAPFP
Protocol: (§1) The running buffer was prepared by diluting 10-fold the 10×HBS-P buffer (supplied by GE Healthcare) and supplemented with 1 mg/ml BSA and 5 mM CaCl2 to give 10 mM HEPES, 150 mM NaCl, 0.05% v/v Polysorbate 20, pH 7.4, 5 mM CaCl2, 1 mg/ml bovine serum albumin (BSA). […] Regeneration of the chip was achieved using 10 mM HEPES, 150 mM NaCl, 20 mM EDTA, 0.05 v/v Polysorbate 20, pH 7.4. Binding data were analysed according to a 1:1 Kinetic model and steady state analysis using BiaEvaluation 4.1 supplied by the manufacturer (Biacore AB, Uppsala, Sweden). Wherever possible, ka, kd and KD values from 1:1 kinetic fitting model are reported. […] An amino acid residue is considered a hot-spot residue if substitution of that amino acid residue with alanine results in an affinity reduction of ten (10) fold or more relative to the wild type.

FVII(a) variant E394A = biological target: T2, FVII(a) variant E394A (human, UniProt P08709 61-466)
T2 construct: hFVII alanine variant in cell culture supernatant
T2 sequence: T1 sequence with A391M, E394A
Protocol: as §1

FVII(a) variant I186A = biological target: T3, FVII(a) variant I186A (human, UniProt P08709 61-466)
T3 construct: hFVII alanine variant in cell culture supernatant
T3 sequence: T1 sequence with I186A, A391M
Protocol: as §1

FVII(a) variant G117A = biological target: T4, FVII(a) variant G117A (human, UniProt P08709 61-466)
T4 construct: hFVII alanine variant in cell culture supernatant
T4 sequence: T1 sequence with G117A, A391M
Protocol: as §1

FVII(a) variant E265A = biological target: T5, FVII(a) variant E265A (human, UniProt P08709 61-466)
T5 construct: hFVII alanine variant in cell culture supernatant
T5 sequence: T1 sequence with E265A, A391M
Protocol: as §1

B1: mAb0842(OA) (antibody, human IgG4 S228P, kappa)
heavy: QVQLQESGPGLVKPSQTLSLTCTVSGYSISSDSAWSWIRQPPGKGLEWIGYIQYSGSTNYNPSLKSRVTISRDTSKNQFSLKLSSVTAADTAVYYCARSVNYYGNSFAVGYWGQGTLVTVSSASTKGPSVFPLAPCSRSTSESTAALGCLVKDYFPEPVTVSWNSGALTSGVHTFPAVLQSSGLYSLSSVVTVPSSSLGTKTYTCNVDHKPSNTKVDKRVESKYGPPCPPCPAPEFLGGPSVFLFPPKPKDTLMISRTPEVTCVVVDVSQEDPEVQFNWYVDGVEVHNAKTKPREEQFNSTYRVVSVLTVLHQDWLNGKEYKCKVSNKGLPSSIEKTISKAKGQPREPQVYTLPPSQEEMTKNQVSLSCAVKGFYPSDIAVEWESNGQPENNYKTTPPVLDSDGSFFLVSRLTVDKSRWQEGNVFSCSVMHEALHNHYTQKSLSLSLGK
light: EIVLTQSPATLSLSPGERATLSCRASQGISDYLHWYQQKPGEAPRLLIKYTSQPATGIPARFSGSGSGTDFTLTISSLEPEDFAVYYCQNGHSFPLTFGQGTKLEIKRTVAAPSVFIFPPSDEQLKSGTASVVCLLNNFYPREAKVQWKVDNALQSGNSQESVTEQDSKDSTYSLSSTLTLSKADYEKHKVYACEVTHQGLSSPVTKSFNRGEC
chain: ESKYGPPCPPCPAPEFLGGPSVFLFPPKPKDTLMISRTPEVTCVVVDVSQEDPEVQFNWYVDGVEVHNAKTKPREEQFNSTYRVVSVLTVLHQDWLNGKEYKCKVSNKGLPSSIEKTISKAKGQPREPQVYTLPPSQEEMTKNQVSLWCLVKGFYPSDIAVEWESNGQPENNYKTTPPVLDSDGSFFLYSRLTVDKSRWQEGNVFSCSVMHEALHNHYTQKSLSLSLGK
notes: also called monovalent humanized 11F2 antibody; one-armed anti-FVII(a) antibody
Q: What does the source list for B1?
A: Kd (FVII(a) variant M391A): 0.25 nM; Kd (FVII(a) variant E394A): 0.79 nM; Kd (FVII(a) variant I186A): 0.39 nM; Kd (FVII(a) variant G117A): 0.31 nM; Kd (FVII(a) variant E265A): 0.98 nM
